The values that follow come from patent US7888090B2, “Mutants of O6-alkylguanine-DNA alkyltransferase” (Ecole Polytechnique Federale de Lausanne, priority 2004, dated 2011).

In data set [1] the test system is oligonucleotide SEQ ID NO:2 (modified in position 14). Kind of data set: Reactivity against DNA-based substrates (BG-Cy3 assay with BG-modified oligonucleotide). In kind it is biochemical. Conditions: 0.5 µM (or more) BG-modified oligonucleotide. How it is done:
The ability of wild type AGT or mutant AGT to react with alkylated DNA substrates is measured as the reaction of its inactivation by a synthetic oligonucleotide containing O^6-benzylguanine (SEQ ID NO:2, modified in position 14). Subsequently, the reactions are quenched by incubation with biotinylated O^6-alkylguanine. Samples are subjected to Western blotting and detection with streptavidin derivates to obtain kinetic constants for these substrates. Alternatively, the ability of wild type or mutant AGT to react with alkylated DNA substrates is measured via its labeling efficiency in competition with a fluorescent substrate of AGT. The reaction kinetics of AGT with BG-Cy3 (O^6-benzylguanine coupled to Cy3) is followed by fluorescence intensity measurements at various concentrations of a competing synthetic oligonucleotide containing O^6-benzylguanine (SEQ ID NO:2, modified in position 14).
Reactivity against DNA-based substrates measured with a BG-Cy3 assay: BG-Cy3 is prepared by reacting the previously described O^6-(4-aminomethyl-benzyl)guanine (Keppler et al., NatureBiotechnol. 21:86-89, 2003) with the commercially available N-hydroxysuccinimide ester of Cy3, (Cy3-NHS, Amersham). The coupling reaction is performed at ambient temperature in N,N-dimethylformamide in the presence of 1 eq. of triethylamine. The BG-Cy3 conjugate is purified by reversed-phase HPLC on a C18-column by using linear gradients from 0.1% trifluoroacetic acid to acetonitrile. After solvent evaporation BG-Cy3 is dissolved in dimethyl sulfoxide and stored at −20° C. For measuring the reactivity with DNA-based substrates, a reaction mixture containing different concentrations (0 to 5 µM) of oligonucleotide SEQ ID NO:2 (modified in position 14), GST-AGT fusion protein at 0.2 µM and BG-Cy3 at […] in reaction buffer (50 mM HEPES, pH 7.2, 1 mM DTT, 200 mg/ml BSA) is incubated in microtiterplates. Fluorescence of the Cy3 derivative (excitation 519 nm, emission at 572 nm) is measured on a Spectramax Gemini plate reader (Molecular Devices).

The subject of data set [2] is salmon sperm DNA. The experiment in a line: DNA binding as inhibition by DNA of the reaction with BG-Cy3. The note with it: salmon sperm DNA 25 µg/ml. The procedure:
(§1) The interaction with DNA is e.g. quantified by assessing the amount of copurified DNA from E. coli extracts under conditions of low salt and absence of DNase. This is compared between parallel purifications of fusion proteins (e.g. fusions to GST) of wild type (human) and mutant AGT by spectroscopic methods (ratio of absorbance at 260 and 280 nm). Alternatively the interaction of AGT with DNA is measured as the inhibition of AGT reactivity with BG-Cy3 (O^6-(4-aminomethyl-benzyl)-guanine coupled to Cy3) as substrate in the presence of DNA. This approach takes advantage of a marked increase of fluorescence of the Cy3 fluorophore upon reaction of BG-Cy3 with AGT. The reaction kinetics of AGT with a Cy3-labeled benzylguanine derivative is followed by fluorescence intensity measurements over several hours at various concentrations of salmon sperm DNA.
DNA binding: DNA binding is measured as inhibition by DNA of the reaction of AGT mutants with BG derivatives. The reaction rate of AGT mutants in a reaction mixture containing salmon sperm DNA (25 µg/ml) instead of oligonucleotide is measured with the BG-Cy3 assay. The reaction rate is determined by fitting the obtained data to a monoexponential increase to maximum.

The nature of data set [3]: Reactivity towards N^9-modified O^6-benzylguanine derivatives (preblocking, BG-Cy3 assay). In kind it is biochemical. The note with it: 100 µM N^9-isobutyl-, N^9-propyl-, N^9-cyanomethyl-O^6-benzylguanine, 15 min. How it is done: FIG. 3: Reactivity of AGT mutants with N^9-modified BG derivatives. 10 µM AGTM (grey bars) or PGEG-hAGT (black bars) were preblocked with 100 µM N^9-modified BG derivatives (see list below), and subsequently labeled with 20 µM BG-Cy3. After 1 h reaction time, fluorescence intensity (FI) indicated in arbitrary units [a.u.] at 595 nm is measured. The black bold line is set at the reading for condition 1 corresponding to background fluorescence of the fluorophore not attached to protein. Values above this line indicate slow or incomplete reaction with N^9-modified BG-derivative. • 1 Fluorescence of BG-Cy3 without protein; background fluorescence. • 2 Reaction with BG-Cy3; no preblocking, positive control. • 3 Reaction with BG-Cy3, preblocked with 100 µM BG. • 4 Reaction with BG-Cy3, preblocked with 100 µM N^9-isobutyl-O^6-benzylguanine. • 5 Reaction with BG-Cy3, preblocked with 100 µM N^9-propyl-O^6-benzylguanine. • 6 Reaction with BG-Cy3, preblocked with 100 µM N^9-cyanomethyl-O^6-benzylguanine.
Reactivity of AGT towards N^9-modified O^6-benzylguanine derivatives: The experiment is based on the BG-Cy3 assay. Upon reaction of AGT with BG-Cy3, an increase of fluorescence emission intensity of Cy3 by a factor 2-3 can be observed. […]

For data set [4] the following is noted: compared to wild type hAGT; literature; cited from earlier work.
Data set [5] is described as follows: Stability after reaction with BG-FL. In kind it is physicochemical. Conditions: over 7 days. The procedure:
Stability before reaction is determined for the mutant AGT or for a mutant AGT fusion protein by incubating purified samples in buffered aqueous solution for up to two weeks at 4° C. and up to six months at −20° C. At several time points, aliquots are taken and concentration of reactive AGT is estimated as described by Juillerat et al., Chem Biol 10:313-317, 2003. Stability for wild type AGT and the AGT mutant after reaction with a labelled substrate and after subsequent separation from unreacted substrate is determined by quantifying the concentration of the label in the soluble fraction over up to two weeks at 4° C. and up to three months at −20° C.
Stability after reaction: The vector pBAD/H is A (Invitrogen) is modified by cloning synthetic oligonucleotides (SEQ ID NO:29 and SEQ ID NO:30) between the NcoI and HindIII sites to include a 12×His-tag and SbfI and AscI cloning sites. The gene of AGTM is amplified with primers SEQ ID NO:31 and SEQ ID NO:32 and cloned between the SbfI/AscI sites into this vector. Wild type AGT and mutant AGT (Lys125Ala, Ala127Thr, Arg128Ala, Asn157Gly, Ser159Glu) are amplified with primers SEQ ID NO:31 and SEQ ID NO:33 and cloned into this vector. Protein expression is carried out in E. coli strain Top 10. An exponentially growing culture is induced with 0.2% arabinose, and the expression is carried out for 16 hours at 28° C. The cells are lysed by adding buffer to 10 ml/g containing 0.5 M NaCl, 80 mM imidazole, 1% Triton, 250 µM PMSF, 1 mM […]-mercaptoethanol, 5 mg/ml lysozyme, 20 µg/ml DNase and stirring for 45 min. […]
The AGT proteins at 10 µM) are quantitatively reacted with fluorescein-modified O^6-benzyl-guanine (substance 5 of Juillerat et al, Chem Biol 10:313-317, 2003, BG-FL, 20 µM) and purified over a size exclusion column (Econopac 10 DG, Bio-Rad) and incubated for 7 days. […] The fluorescence of the supernatant is measured with a Victor2 fluorescence plate reader (Perkin Elmer, excitation/emission at 485/535 nm).

Data set [6] can be described thus: Activity assay with biotinylated O^6-benzylguanine (BG-Bt), Western blotting. Conditions: statement in words. In kind it is biochemical. In a few lines:
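Purified mutant GST-AGT (0.2 μM) reacted with 1 μM biotinylated O^6-benzylguanine in 50 mM HEPES pH 7.2, 1 mM DTT at room temperature. Time-point aliquots quenched with O^6-benzylguanine in SDS buffer. Biotinylated protein detected by Western blot with neutravidin-peroxidase, band intensity quantified.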
Background: In western blotting, separated proteins are transferred to a membrane and probed.

Data set [7] relates to DNA. Kind of data set: DNA binding in vitro (co-purified DNA, UV spectroscopy). Further details: species or system E. coli. Conditions: co-purified DNA; compared to wild type hAGT or PGEG-hAGT. The procedure: as §1
For comparing the DNA binding properties of the protein in vitro, the harvested cells are resuspended, and the GST fusion protein is purified following the same method but in a buffer containing 50 mM phosphate, 0.1 M NaCl, 1 mM DTT. In the dialysed samples, the amount of subsequently co-purified DNA is estimated by UV spectroscopy. Spectra are recorded using a Perkin Elmer Lambda 10. The content of DNA corresponds to the ratio of the extinctions at 280 and 260 nm. […]

In data set [8] the test system is CHO cells. The experiment in a line: Selective labelling in cells after CPTG pre-incubation. In kind it is cell-based. The note with it: 5 µM CPTG 10 min, then 5 µM fluorescent substance 4 20 min. An excerpt:
In a further experiment, the mutant AGTM as described in Example 6 is amplified with the primers SEQ ID NO:34 and SEQ ID NO:36 and cloned between the NheI and BgIII sites of the vector pEGFP-Nuc. The […]-galactosidase gene is amplified with the primers SEQ ID NO:37 and SEQ ID NO:38 and subcloned into this vector via BgIII/BamHI to result in a vector with an AGTM-[…]-Gal fusion gene. The hAGT gene is amplified by the principle described under Example 1 with the primers SEQ ID NO:39, SEQ ID NO:40, SEQ ID NO:34, and SEQ ID NO:35 and cloned via NheI/BgIII into pEGFP-Nuc to result in an AGT-NLS3 fusion gene coding for the mutation Gly160Trp. After transient expression of both AGT mutants in parallel, the cells are incubated with 5 µM CPTG for 10 min and subsequently with 5 µM of substance 4 of Juillerat et al., Chem Biol 10:313-317, 2003, for 20 min. The cells are washed and imaged as described under Example 1.

B1: PGEG-hAGT: an AGT containing the mutations Asn157Gly, Ser159Glu (Juillerat et al., Chem Biol 10:313-317, 2003) (protein, UniProt P16455 1-207, looked up, variant N157G S159E)
Methylated-DNA--protein-cystei …: MDKDCEMKRTTLDSPLGKLELSGCEQGLHEIKLLGKGTSAADAVEVPAPAAVLGGPEPLMQCTAWLNAYFHQPEAIEEFPVPALHHPVFQQESFTRQVLWKLLKVVKFGEVISYQQLAALAGNPKAARAVGGAMRGNPVPILIPCHRVVCSSGAVGGYEGGLAVKEWLLAHEGHRLGKPGLGGSSGLAGAWLKGAGATSGSPPAGRN
B1: the “activity in presence of BG-modified oligonucleotide” value in data set [1] was “less than 3%”. Also, the “reduction of reaction rate to BG-Cy3 in presence of DNA” value in data set [2] was 5 fold. For the same molecule, the “extent of reaction with N^9-modified BG derivatives” value in data set [3] was “reacts efficiently”. Also, the “activity against benzylguanine derivatives (factor)” value in data set [4] was “approximately 20”.

B2: Lys125Ala, Ala127Thr, Arg128Ala, Asn157Gly, Ser159Glu: hAGT mutant with the listed mutations, expressed as GST fusion (protein, UniProt P16455 1-207, looked up, variant K125A A127T R128A N157G S159E)
Methylated-DNA--protein-cystei …: MDKDCEMKRTTLDSPLGKLELSGCEQGLHEIKLLGKGTSAADAVEVPAPAAVLGGPEPLMQCTAWLNAYFHQPEAIEEFPVPALHHPVFQQESFTRQVLWKLLKVVKFGEVISYQQLAALAGNPAATAAVGGAMRGNPVPILIPCHRVVCSSGAVGGYEGGLAVKEWLLAHEGHRLGKPGLGGSSGLAGAWLKGAGATSGSPPAGRN
modifications: GST fusion
Take B2: the “loss of soluble fluorescent protein” value in data set [5] is given as “about 60%”. Besides, in data set [6], the “activity towards O^6-benzylguanine substrates” value is “retains activity”. In data set [7], the DNA binding entry is reported as “at least ten times reduced DNA binding”.

B3: AGT (Gly160Trp): Human AGT mutant Gly160Trp (Xu-Welliver et al.); expressed as AGT-NLS3 fusion (protein, UniProt P16455 1-207, looked up, variant G160W)
Methylated-DNA--protein-cystei …: MDKDCEMKRTTLDSPLGKLELSGCEQGLHEIKLLGKGTSAADAVEVPAPAAVLGGPEPLMQCTAWLNAYFHQPEAIEEFPVPALHHPVFQQESFTRQVLWKLLKVVKFGEVISYQQLAALAGNPKAARAVGGAMRGNPVPILIPCHRVVCSSGAVGNYSWGLAVKEWLLAHEGHRLGKPGLGGSSGLAGAWLKGAGATSGSPPAGRN
modifications: NLS3 fusion
For B3, the “reaction with CPTG inside cells” value in data set [8] is “efficiently reacts with CPTG inside cells”. For the same molecule, the “activity against benzylguanine derivatives (factor)” value in data set [4] is given as “somewhat more reactive”.
